Values belong to the binder of their own block, whether it stands above or below them.
Legend:
[1] = biological target: light-chain single-domain antibody L6 (mCD16-specific VHHL); experiment: BLI; settings: both partners purified
[2] = biological target: T1, human tumor necrosis factor alpha (hTNF-α)-His (human, UniProt P01375); experiment: BLI; settings: both partners purified
T1 construct: also called hTNF-a
T1 sequence (P01375 whole entry): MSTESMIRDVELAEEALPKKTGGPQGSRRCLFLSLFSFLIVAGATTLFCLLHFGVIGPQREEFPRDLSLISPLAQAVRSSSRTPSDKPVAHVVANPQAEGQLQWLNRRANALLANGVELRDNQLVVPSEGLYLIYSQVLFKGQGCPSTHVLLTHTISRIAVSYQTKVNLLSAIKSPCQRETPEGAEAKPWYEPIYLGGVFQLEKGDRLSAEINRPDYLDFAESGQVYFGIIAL

Kd [1]: 54.3 ± 1.41 nM
B1: mouse CD16 (mCD16), his-tagged (receptor, UniProt P08508 31-215, looked up)
chain: ALPKAVVKLDPPWIQVLKEDMVTLMCEGTHNPGNSSTQWFHNGRSIRSQVQASYTFKATVNDSGEYRCQMEQTRLSDPVDLGVISDWLLLQTPQRVFLEGETITLRCHSWRNKLLNRISFFHNEKSVRYHHYKSNFSIPKANHSHSGDYYCKGSLGSTQHQSKPVTITVQDPATTSSISLVWYHT

B2: hIgG4 bsAb by modular replacement: golimumab (Gmab) heavy chain with L6 light chain (bispecific antibody, V domains shown)
VH: QVQLVESGGGVVQPGRSLRLSCAASGFIFSSYAMHWVRQAPGNGLEWVAFMSYDGSNKKYADSVKGRFTISRDNSKNTLYLQMNSLRAEDTAVYYCARDRGIAAGGNYYYYGMDVWGQGTTVTVSS
VL: EIVLTQSPGTLSLSPGERATLSCRASGSTFSSYTLAWYQQKPGQAPRLLIYIYSDGGRTSRATGIPDRFSGSGSGTDLTLTISRLEPEDFAVYYCNAESPFYDYDYWGKGTKVEIK
binding result [2]: binds
